The values below come from the supplement of paper PMC10567573.

± gives the standard deviation.

A short description of this series: protein stability index of a GFP-peptide fusion (GPS, HEK-293T) (PSI 1-6); higher = more stable. Conditions: c terminus: a fixed tail appended.
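Note: 24-mer peptide tiles fused after GFP, lentivirally expressed, FACS-sorted into six equal bins by GFP/DsRed ratio, decoded by Illumina sequencing, PSI is the read-weighted mean bin number.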

In turn, NFCKEQAARISNKGKFSTDTKGKP [ZC2HC1A] came in with a protein stability index (treatment: DMSO) of 3.78 ± 0.2 and a protein stability index (treatment: MLN4924 1 uM, 8 h) of 4.27 ± 0.31.

For NFGFDLLVTYTNRYIIFKRNTLNQ [GMCL1], the protein stability index amounted to 2.1 ± 0.15 (treatment: DMSO) and 2.47 ± 0.56 (treatment: MLN4924 1 uM, 8 h).

In turn, NFQQPGFTSGTGHFTAMVWKNTKK [GLIPR2] displayed a protein stability index (treatment: DMSO) of 3.74 ± 0.32 and a protein stability index (treatment: MLN4924 1 uM, 8 h) of 3.95 ± 0.067.

As to NGIGAVLDFTHPKARDWFQGHLRR [MYORG], the protein stability index was determined as 2.75 ± 0.34 (treatment: DMSO) and 2.64 ± 0.27 (treatment: MLN4924 1 uM, 8 h).

As for NHLNPEVKKSCWTEEEDRIICEAH [MYBL2], the protein stability index runs as follows: (treatment: DMSO) 4.72 ± 0.1; (treatment: MLN4924 1 uM, 8 h) 4.81 ± 0.2.

In the case of NIRPSSSGGYWVGMSTIRPNPGFS [APMAP], the protein stability index came out at 2.61 ± 1 (treatment: DMSO) and 2.65 ± 0.37 (treatment: MLN4924 1 uM, 8 h).

NKPREHIIDCGDIVWSLAFGSSVP [WSB1]: the protein stability index is, setting by setting: (treatment: DMSO) 2.17 ± 0.38; (treatment: MLN4924 1 uM, 8 h) 2.07 ± 0.2.

NLAFGRRCEELEDARYKLHHHLHK [TEKT4]: the protein stability index reads like this: (treatment: DMSO) 3.2 ± 0.22; (treatment: MLN4924 1 uM, 8 h) 3.2 ± 0.16.

As for NLFEGMIWFIVPISCVICNDIMAY [CDS2], the protein stability index amounted to 3.44 ± 0.44 (treatment: DMSO) and 3.26 ± 0.74 (treatment: MLN4924 1 uM, 8 h).

NLPKFCHECGTKYPVEWAKFCCEC [ZC2HC1A]: the protein stability index (treatment: DMSO) amounted to 5.275 ± 0.001 and the protein stability index (treatment: MLN4924 1 uM, 8 h) is 5.557 ± 0.049.

As to NLVSVGYQAGKPDALTKLEQGEPL [ZNF649], the protein stability index by setting is: (treatment: DMSO) 4.39 ± 0.27; (treatment: MLN4924 1 uM, 8 h) 4.17 ± 0.4.

With NQEILLPGGITSHQLLGLFPSTSY [TNXB], the protein stability index (treatment: DMSO) was determined as 2.58 ± 0.092 and the protein stability index (treatment: MLN4924 1 uM, 8 h) amounted to 2.53 ± 0.27.

In the case of NRQSSDKQNGRVAKVKGHRSQKHK [C18orf25], the protein stability index is, setting by setting: (treatment: DMSO) 4.67 ± 0.18; (treatment: MLN4924 1 uM, 8 h) 4.55 ± 0.17.

Regarding NSKKEEPQELLQSQDFVGEKLGSG [ATE1], the protein stability index was 5.51 ± 0.11 (treatment: DMSO) and 5.42 ± 0.23 (treatment: MLN4924 1 uM, 8 h).

As for NSLEMTPAVRQRVIEEAKTAFLLN [HMOX1], the protein stability index runs as follows: (treatment: DMSO) 3.67 ± 0.2; (treatment: MLN4924 1 uM, 8 h) 3.63 ± 0.31.

As to NSSGDIGKKEIKPFKRFLRKKSKP [SMOC2], the protein stability index by setting is: (treatment: DMSO) 4.15 ± 0.4; (treatment: MLN4924 1 uM, 8 h) 4.19 ± 0.68.

Take NTHVSQVFNLFRTMGLRHLPVVNA [CLCN6]: the protein stability index reads like this: (treatment: DMSO) 2.57 ± 0.39; (treatment: MLN4924 1 uM, 8 h) 2.12 ± 0.15.

For NVTELLRDVAAWGRARATGGDLEE [DNAAF3], the protein stability index runs as follows: (treatment: DMSO) 3.63 ± 0.15; (treatment: MLN4924 1 uM, 8 h) 3.75 ± 0.31.

The sequence NWLIKYDCPMDSSSSRDTDWVVVK [PI4K2A] displayed a protein stability index (treatment: DMSO) of 2.83 ± 0.77 and a protein stability index (treatment: MLN4924 1 uM, 8 h) of 3.1 ± 0.17.

In turn, NWPKNSNGVTQKASAPTYPSLYSS [NANOGP8] gave a protein stability index (treatment: DMSO) of 3.53 ± 0.21 and a protein stability index (treatment: MLN4924 1 uM, 8 h) of 3.65 ± 0.25.

PADSAQLLSLNSLLPESGIVADIE [TFE3]: the protein stability index runs as follows: (treatment: DMSO) 4.93 ± 0.19; (treatment: MLN4924 1 uM, 8 h) 5.1 ± 0.19.

Regarding PAQVHSSLSAGEKPGFLAPRDLPK [RASAL3], the protein stability index runs as follows: (treatment: DMSO) 4.63 ± 0.34; (treatment: MLN4924 1 uM, 8 h) 4.77 ± 0.41.

As to PARDYVVLRTWRTNLPKGACALLL [DLC1], the protein stability index (treatment: DMSO) is 2.47 ± 1.3 and the protein stability index (treatment: MLN4924 1 uM, 8 h) amounted to 2.22 ± 0.4.

With PDHFDTAILFTRQDLCGVSTCDTL [ADAMTS4], the protein stability index was determined as 2.83 ± 0.21 (treatment: DMSO) and 2.94 ± 0.4 (treatment: MLN4924 1 uM, 8 h).

PDPSVWSRRYTEMALPFFSLAEVR [MYORG] came in with a protein stability index (treatment: DMSO) of 2.52 ± 0.31 and a protein stability index (treatment: MLN4924 1 uM, 8 h) of 2.45 ± 0.13.

As to PDTGDNARLTYSIVGNQVQGAPAS [PCDHGC5], the protein stability index is, setting by setting: (treatment: DMSO) 4.42 ± 0.37; (treatment: MLN4924 1 uM, 8 h) 4.52 ± 0.52.

As for PEFDYLKSLEIEEKINKIKWLPQQ [PPP2R2C], the protein stability index came to 3.52 ± 0.23 (treatment: DMSO) and 3.58 ± 0.2 (treatment: MLN4924 1 uM, 8 h).

Turning to PERRRSPGPAPGSPGELEEDLLLP [WEE1], the protein stability index by setting is: (treatment: DMSO) 5.33 ± 0.28; (treatment: MLN4924 1 uM, 8 h) 5.37 ± 0.38.

As to PETFWIQRAPQLPTWWPLPTQVPA [SPAG8], the protein stability index (treatment: DMSO) stood at 2.42 ± 0.19 and the protein stability index (treatment: MLN4924 1 uM, 8 h) came to 2.52 ± 0.15.

Regarding PETLTNLRKGYLFMYNLVQFLGFS [HACD3], the protein stability index is 2.34 ± 0.56 (treatment: DMSO) and 2.04 ± 0.34 (treatment: MLN4924 1 uM, 8 h).

For PGDPSKDRAAKRLSLESEGAGEGA [TPPP], the protein stability index worked out at 5.47 ± 0.22 (treatment: DMSO) and 5.33 ± 0.38 (treatment: MLN4924 1 uM, 8 h).

Turning to PGEDENPEKASELSQVELQAAPGA [TRIM55], the protein stability index stood at 5.56 ± 0.27 (treatment: DMSO) and 5.72 ± 0.2 (treatment: MLN4924 1 uM, 8 h).

Consider PGPDTGPDSELSPCIPPGFRNLVA [SPAG8], for which the protein stability index reads like this: (treatment: DMSO) 3.79 ± 0.27; (treatment: MLN4924 1 uM, 8 h) 3.94 ± 0.17.

PHAMTIQELVDYVNARQKQGIYEE [PTPN9] displayed a protein stability index (treatment: DMSO) of 3.23 ± 0.21 and a protein stability index (treatment: MLN4924 1 uM, 8 h) of 3.25 ± 0.41.

Regarding PHTPQTPGQGGPASTPAQTAAGGQ [NR2F2], the protein stability index reads like this: (treatment: DMSO) 5.3 ± 0.18; (treatment: MLN4924 1 uM, 8 h) 5.27 ± 0.23.

The sequence PHVIVSTTGPNPFTTLTDRELEEY [ADD1] came in with a protein stability index (treatment: DMSO) of 4.83 ± 0.17 and a protein stability index (treatment: MLN4924 1 uM, 8 h) of 4.91 ± 0.091.
